The record followed here is PMC10293748.

For this assay, the target named is SARS-CoV-2 RBDWT, His-tagged, soluble (SARS-CoV-2) (UniProt P0DTC2). The assay can be described thus: ELISA.

Substance “soluble ACE2 (sACE2), commercially available, His-tagged (domain or fragment)” came in with a 50% inhibitory concentration (IC50) of 179 nM.
